Substitutions are numbered along the chain they refer to. Names and notes keep the numbering of the source. No end group written: not given here. TMR = tetramethyl rhodamine dye
T1: Rb^P T738I (human, UniProt P06400 380-788, T738I)
T1 construct: also called variant 67
T1 sequence (looked up): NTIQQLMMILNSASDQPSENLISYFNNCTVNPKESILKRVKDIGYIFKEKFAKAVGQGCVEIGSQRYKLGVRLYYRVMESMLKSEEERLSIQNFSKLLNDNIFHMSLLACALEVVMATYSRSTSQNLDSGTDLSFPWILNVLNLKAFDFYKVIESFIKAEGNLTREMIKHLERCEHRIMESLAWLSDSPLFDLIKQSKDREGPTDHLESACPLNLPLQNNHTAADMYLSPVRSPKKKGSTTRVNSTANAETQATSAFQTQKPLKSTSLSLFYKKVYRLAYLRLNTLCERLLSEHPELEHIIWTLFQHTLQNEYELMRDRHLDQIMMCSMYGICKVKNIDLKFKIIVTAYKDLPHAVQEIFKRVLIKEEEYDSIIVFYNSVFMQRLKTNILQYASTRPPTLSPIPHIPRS

T2: Rb^P R621S (human, UniProt P06400 380-788, R621S)
T2 construct: also called variant 44
T2 sequence (looked up): T1 sequence (looked up) with R242S, I359T

T3: Rb^P R621H (human, UniProt P06400 380-788, R621H)
T3 construct: also called variant 42
T3 sequence (looked up): T1 sequence (looked up) with R242H, I359T

T4: Rb^P Y606C (human, UniProt P06400 380-788, Y606C)
T4 construct: also called variant 37
T4 sequence (looked up): T1 sequence (looked up) with Y227C, I359T

T5: Rb^P R656W (human, UniProt P06400 380-788, R656W)
T5 construct: also called variant 49
T5 sequence (looked up): T1 sequence (looked up) with R277W, I359T

B1: TMR-E2F1^TD, peptide of the E2F1 transactivation domain (peptide)
peptide: {TMR}-GEGIRDLFDCDFGDLTPLD
notes: also called E2F^TD; source: synthetic peptide, bought: GenScript
B2: TMR-E7^LxCxE, LxCxE peptide of the E7 oncoprotein from HPV (peptide)
peptide: DLYCYEQLN
modifications: also: TMR label, position not given here
notes: source: synthetic peptide, bought: GenScript

Experiments:
Experiment in all cases: fluorescence polarisation; 37 °C, after the 25 °C reading ramped over 7 min to 37 °C and 2 min incubation; unlabeled Rb^P against 1.5 nM TMR-E2F1^TD or 7.5 nM TMR-E7^LxCxE; 25 mM Tris pH 8.0, 200 mM NaCl, 1 mM DTT, 0.1% Tween-20; apparent Kd
Conditions in all cases: both partners purified
Rb^P T738I = target: T1, Rb^P T738I
Rb^P R621S = target: T2, Rb^P R621S
Rb^P R621H = target: T3, Rb^P R621H
Rb^P Y606C = target: T4, Rb^P Y606C
Rb^P R656W = target: T5, Rb^P R656W

Row | Binder | Kd (Rb^P T738I) | Kd (Rb^P R621S) | Kd (Rb^P R621H) | Kd (Rb^P Y606C) | Kd (Rb^P R656W)
1 | B1 | 179 nM | 38 nM | 48 nM | 27 nM | 77 nM
2 | B2 | 151 nM | 17 nM | 18 nM | 23 nM | 19 nM
